The results in this text go back to PMC10367427 (Frontiers in Immunology, 2023).

The target in this assay is T1, SARS-CoV-2 full-length nucleocapsid protein (NP) (SARS-CoV-2, reference (Wuhan-Hu-1; Gene …, UniProt P0DTC9).
T1 construct: also called full-length NP
In words: ELISA. The note with it: both partners purified.

B1: NbON10-NanoLuc fusion protein (VHH)
VHH: QVQLVQSGGGLVQPGGSLRLSCAASGLRLGYYTIAWFRQAPGKEREGISCISRSDGSTYYADSVKGRFTISTDNAENTVYLQMNSLKPEDTAVYYCAADFVPASHCAVANTRGYDYWGQGTQVTVSS
Regarding B1, the binding result was “binds”.
